Reference: the supplement of paper PMC9170038

System: MS2 coat protein
Assay: apparent KD of MS2 coat protein; designed switch direction (-1 OFF switch, 1 ON switch): -1; higher = weaker reporter binding
Method in brief: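 Three titration conditions were used: no input, 200 uM small-molecule ligand, and an oligonucleotide input. In each, SNAP-549-labelled MS2 coat protein was raised from 0.7 or 1.5 nM, doubling, to 3 µM over designed RNA switches transcribed on Illumina chips by stalled E. coli RNA polymerase. Curve fits of normalised cluster fluorescence gave values whose per-design median over clusters is the apparent KD.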

[1] = input ligand: microRNA oligo, concentration not stated
[2] = Eterna round: R95, input ligand: microRNA oligo, concentration not stated
[3] = Eterna round: R95, input ligand: FMN 200 uM
[4] = Eterna round: R95, input ligand: none

Sequence | apparent KD of MS2 coat protein (input ligand: FMN 200 uM) | apparent KD of MS2 coat protein [1] | apparent KD of MS2 coat protein (input ligand: none) | apparent KD of MS2 coat protein [2] | apparent KD of MS2 coat protein [3] | apparent KD of MS2 coat protein [4]
GCAGCAAUCUCAAUUAAAACCACAUGAGGAUCACCCAUGUCUCAGGAUAUGGUCUGGAUUACAGGCCAGAAGGGAGAAAGCUGC [Eli exng3 - 053] (Eterna round: R96, puzzle: Exclusion NG 3) | 13.5 nM | 10.2 nM | 13 nM |  |  | 
GCAGCACAUGUAGGAUAUCUGCACGUGUAGUGCAGAGAAGGACAUGAGGAUCACCCAUGUAAUUAAGAUCAAUUAUUAAGCUGC [ENG1/3-C3] (Eterna round: R96, puzzle: Exclusion NG 1) | 519 nM | 42.4 nM | 49.1 nM |  |  | 
GCAGCAUAGAUGAAAAUCUGAUACAUGAGGAUCACCCAUGUACAGGAUAUGGUCUGGAUUACAGGCCAGAAGGGUACAAGCUGC [Eli exng3 - 012] (Eterna round: R96, puzzle: Exclusion NG 3) | 15.7 nM | 10.4 nM | 12.1 nM |  |  | 
GCAGCAUAGUCCAAAUAGGACAUACAUGAGGAUCACCCAUGUCAGGAUAUGGUCUGGAUUACAGGCCAGAAGGGACAAAGCUGC [Eli exng3 - 001] (Eterna round: R96, puzzle: Exclusion NG 3) | 30.4 nM | 22.3 nM | 27.9 nM |  |  | 
GCAGCGUAUGUAGGAUAUCGGUCAGUUUCUGAUCGAGAAGGACAUGAGGAUCACCCAUGUUAAGUCAUGCGUGAGCAUGGCUGC [JL ENG1 3.72] (Eterna round: R96, puzzle: Exclusion NG 1) | 317 nM | 23.8 nM | 31.4 nM |  |  | 
GCAGCUAAUGCAGGAUAUCAGCACGAUUAGUGCUGAGAAGGGCACAUGAGGAUCACCCAUGUGAUCAAUUAAUAUUAAUGCUGC [ENG1/11-B1] (Eterna round: R96, puzzle: Exclusion NG 1) | 184 nM | 24 nM | 25.1 nM |  |  | 
GCAGCUAGUUCAGGAUAUCAGCACGUGUAGUGCUGAGAAGGGAACAUGAGGAUCACCCAUGUGAUCAAUGCUGCAAUUUUAAUU [ENG1/12-A3] (Eterna round: R96, puzzle: Exclusion NG 1) | 780 nM | 461 nM | 2260 nM |  |  | 
GCAGGAUAAGUGAGGAUAUACCUAUGGAUACAUAGGUAGAAGGUACAUGAGGAUCACCCAUGUUCCUCACCUGC [Fiskers BMX 4 - 64] (puzzle: Brourd's mod of Exclusion 4) |  |  |  | 10.1 nM |  | 
GCAGGAUAAGUGAGGAUAUACCUCUGGAUACAGAGGUAGAAGGCACAUGAGGAUCACCCAUGUCUAUCACCUGC [Fiskers BMX 4 - 78] (puzzle: Brourd's mod of Exclusion 4) |  |  |  | 14.5 nM |  | 
GCAGGCGUCUUGGCUCGUCUUAUUUGGAGAGGAUUGAUAACAUGAGGAUCACCCAUGUGUGUGGGAGAGUUGCAGUG [JR_SV3TOV2_Sub017] (puzzle: Sensor v3, turn-off variant 2) |  |  |  | 203 nM | 293 nM | 374 nM
GCAGGUUAAGUCAGGAUAUACCUAUGGAUACAUAGGUAGAAGGGACAUGAGGAUCACCCAUGUUUCUCAUCUGC [Mod of Eli 2 - Jieux - Brourd's mod of Exclusion 4] (Eterna round: R97, puzzle: Brourd's mod of Exclusion 4) | 61.5 nM |  | 21.7 nM |  |  | 
GCAGUAUGAGUUAGGAUAUGAUGAUUUAAAAUAAAUCAGAAGGAACUUGAGGAUCACCCAAGUAAAGAAUUGGU [JR_BMEx4_Sub071] (Eterna round: R97, puzzle: Brourd's mod of Exclusion 4) | 25.3 nM |  | 22.1 nM |  |  | 
GCAGUGCGAGGAUAUACAUGAGGAUCACCCAUGUGAGAGAAAUAAGUGAGGAAGAAAAGUAGAAGGCGCGUUGG [Mat - Exclusion 3 - Mod of Salish D69] (puzzle: Exclusion 3) |  |  |  | 40.8 nM | 95.2 nM | 69.1 nM
GCAUCCAAUGUGAGGAUAUACCUCUGGAUACAUAGGUAGAAGGCACAUGAGGAUCACCCAUGUUCCAAGGAUGC [Fiskers BMX 4 - 30] (puzzle: Brourd's mod of Exclusion 4) |  |  |  | 65 nM | 183 nM | 82 nM
GCAUGUUGGUAGGAUAUGCAGCGAAAACCGCUAGUAGAAGGAUUGACAUGAGGAUCACCCAUGUGAACCGAAGG [Esesbece] (Eterna round: R97, puzzle: Exclusion 6) | 139 nM |  | 36.6 nM |  |  | 
GCCAGAGCAGGAUAUCUAUAUUAUCACAUGAGGAUCACCCAUGUCCAGCGAAAGCUGGAGGGAGAAGGGCUCUGGC [Fiskers Ex 5 - 26] (Eterna round: R96, puzzle: Exclusion 5) | 51 nM | 60.9 nM | 104 nM |  |  | 
GCCAGAGCAGGAUAUCUAUAUUAUCACAUGAGGAUCACCCAUGUCCAGCGAAAGCUGGAGGGAGAAGGGCUCUGGC [Fiskers Ex 5 - 26] (puzzle: Exclusion 5) |  |  |  | 76.7 nM | 55.7 nM | 74.5 nM

Sequence | apparent KD of MS2 coat protein (input ligand: FMN 200 uM) | apparent KD of MS2 coat protein [1] | apparent KD of MS2 coat protein (input ligand: none) | apparent KD of MS2 coat protein [2] | apparent KD of MS2 coat protein [3] | apparent KD of MS2 coat protein [4]
GCCAGAGCAGGAUAUUCAAUAAUUCACAUGAGGAUCACCCAUGUCCAGCGAAAGCUGGAAGGAGAAGGGCUCUGGC [Fiskers Ex 5 - 3] (puzzle: Exclusion 5) |  |  |  | 14.5 nM |  | 
GCCAGAGCAGGAUAUUCAAUAUCACACAUGAGGAUCACCCAUGUCUGGCGAAAGCUAGAGGGAGAAGGGCUCUGGC [Mat - Exclusion 5 - Eli mod - D97] (puzzle: Exclusion 5) |  |  |  | 38.8 nM | 17.9 nM | 55.2 nM
GCCCUCGCUGAGGAUAUUAUCUGGCUCGACCGAUAAGAAGGCAGUACAUGAGGAUCACCCAUGUGGUUCGUUCG [Polaris46] (Eterna round: R97, puzzle: Exclusion 6) | 97.9 nM |  | 41 nM |  |  | 
GCCGGAUAAGUGAGGAUAUACCUAUGGAUACAUAGGUAGAAGGCACAUGAGGAUCACCCAUGUACCUCUCCGGC [JL-BMX4-4.18 Eli mod] (Eterna round: R97, puzzle: Brourd's mod of Exclusion 4) | 87.5 nM |  | 14.8 nM |  |  | 
GCCGGGCGAGGAUAUACAUGGCGGGCGAAAGCCCGCGAUCUACAUGAGGAUCACCCAUGUAGAAGGCGCCCGGC [2nd Free energy optimized design] (Eterna round: R97, puzzle: Exclusion 2) | 567 nM |  | 49.3 nM |  |  | 
GCCUCACUUGAGGAUCACCCAAGUCAGGAUAUUCACUGAACUACGUAGCAGUUCGGCCGAAGAAGGGAUUCGGG [Azaraqu] (Eterna round: R97, puzzle: Exclusion 1) | 44.5 nM |  | 95.1 nM |  |  | 
GCCUCACUUGAGGAUCACCCAAGUCAGGAUAUUCACUGAACUGCGUAACAGUUCGGCCGAAGAAGGGAUUCGGG [Uscedian] (Eterna round: R97, puzzle: Exclusion 1) | 35.6 nM |  | 96.5 nM |  |  | 
GCGCACCUACCAAAAGGUAGGCCAACAUGAGGAUCACCCAUGUAGGAUAUCGAUUGCUUUGCAGUCGAGAAGGACAUGAUGCGC [JL ENG3 3.80 Mod 8] (Eterna round: R96, puzzle: Exclusion NG 3) | 33.8 nM | 15.4 nM | 21.6 nM |  |  | 
GCGCACCUACCAAAAGGUAGGUCAACAUGAGGAUCACCCAUGUAGGAUAUCGAUUGCUUUGCAGUCGAGAAGGACAUGAUGCGC [JL ENG3 3.80 Mod 13] (Eterna round: R96, puzzle: Exclusion NG 3) | 111 nM | 36.3 nM | 36.7 nM |  |  | 
GCGCCAUCGUGAGAUGGCGUAUAUACAUGAGGAUCACCCAUGUAGGAUAUCGAUUGCUUUGCAGUCGAGAAGGGCAAGGUAUUU [JL ENG3 3.91] (Eterna round: R96, puzzle: Exclusion NG 3) | 34 nM | 25.5 nM | 33.8 nM |  |  | 
GCGCGCGCAGGAUAUACAUGAGGAUCACCCAUGUAGGGCCCGGGUAUUCCCGGGCCCUGUAGAAGGGUGUGUGU [-40.4, -37.1 kcal, A 19%, 0-6] (Eterna round: R97, puzzle: Exclusion 3) | 21.8 nM |  | 113 nM |  |  | 
GCGCGCUAAGGAUAUACAUGAGGAUCACCCAUGUGCGCGCAAAAGCGCCGCGCGCGCGGUAGAAGGUAGGCAAA [Extraordinary-Exclusion 3] (Eterna round: R97, puzzle: Exclusion 3) | 16 nM |  | 11.4 nM |  |  | 
GCGCGGACAGGAUAUACAUGAGGAUCACCCAUGUGUGAGGCUAACAGUGCCAACUCUGGUAGAAGGGUCCCGGG [EX3 B.19] (Eterna round: R97, puzzle: Exclusion 3) | 269 nM |  | 111 nM |  |  | 
GCGCGUAGAUAGGAUAUUUGAUAAAGACGGACCAAAGAAGGAUUUACAUGAGGAUCACCCAUGUCGAUCCUCUU [EX6 C.17] (Eterna round: R97, puzzle: Exclusion 6) | 14.2 nM |  | 16.4 nM |  |  | 
GCGGACUAGAACGUGAGUUCUGAGACAUGAGGAUCACCCAUGUAGGAUAUCGAUUCGAAACGAAUCGAGAAGGGCAUAGUCCGC [JL denovo 11] (Eterna round: R96, puzzle: Exclusion NG 3) | 15.2 nM | 14.7 nM | 17.7 nM |  |  | 
GCGGAUCUAGGAUAUACAUGAGGAUCACCCAUGUAAACUCUCUUGGAUGACUACUAUUGUAGAAGGAGAUAAGC [Erlabeedle] (puzzle: Exclusion 3) |  |  |  | 24.4 nM |  | 
